# Source: patent publication US20030216297A1, “Pharmaceutical composition” (SANKYO COMPANY, LIMITED, priority 2002, published 2003)
# Experiment: Serum concentration of OCIF after intravenous injection in rats
# Assay type: in vivo
# Details: Wistar female rat, single i.v. dose 0.5 mg OCIF/kg, 6 hours after administration
# Procedure: Five-week old Wistar female rat (having a body weight of about 100 g) were made to abstain from food overnight. The preparation of OCIF and dextran sulfate prepared in either Preparation Example 1, Preparation Example 2 or Reference Example 1 which was to be tested was diluted to a concentration of 0.25 mg/ml with PBS (pH 7.4) containing 0.01% Polysorbate 80 to prepare an injectable solution, which was then administered to the tail of one of the test rats via a vein in a single dose at an injected level of 2 ml/kg body weight. 6 hours after administration, blood was taken from the heart of the rat. […]
# After stirring gently using a shaking machine (Micro plate mixer NS-P: manufactured by Iuchi Seiei-Do Co Ltd.), the absorbance of each well at a wavelength of 450 nm was measured using a micro plate reader (SPECTRA THERMO: manufactured by TECAN). The OCIF concentration in the tested serum was then calculated from a calibration curve created using the standard OCIF solution. The dose was calculated as the dose of OCIF per kg body weight (mg/kg) by measuring the concentration of OCIF in each injection prepared in 1(a) in a similar manner to the case of the serum.
# The OCIF in the serum obtained in 1(b) above was quantified for each sample according to the method described in 1(c) above.
substance,measurement,value
"Prep. 4: OCIF/DS5 complex: DS5 130 mg/ml, OCIF 6.5 mg/ml, 4 °C, pH 10.5, 72 h",Serum concentration (OCIF),370 ng/mL
